Reference: patent US20200316124A1

Target: SCNN1A, Sodium Channel Epithelial 1 Alpha Subunit (Isoform 1, UniProt P37088-1) (human) (UniProt P37088)
Assay: cell-based or functional assay

Sequence of SCNN1A, Sodium Channel Epithelial 1 Alpha Subunit (P37088 whole entry, canonical isoform, one chain of several): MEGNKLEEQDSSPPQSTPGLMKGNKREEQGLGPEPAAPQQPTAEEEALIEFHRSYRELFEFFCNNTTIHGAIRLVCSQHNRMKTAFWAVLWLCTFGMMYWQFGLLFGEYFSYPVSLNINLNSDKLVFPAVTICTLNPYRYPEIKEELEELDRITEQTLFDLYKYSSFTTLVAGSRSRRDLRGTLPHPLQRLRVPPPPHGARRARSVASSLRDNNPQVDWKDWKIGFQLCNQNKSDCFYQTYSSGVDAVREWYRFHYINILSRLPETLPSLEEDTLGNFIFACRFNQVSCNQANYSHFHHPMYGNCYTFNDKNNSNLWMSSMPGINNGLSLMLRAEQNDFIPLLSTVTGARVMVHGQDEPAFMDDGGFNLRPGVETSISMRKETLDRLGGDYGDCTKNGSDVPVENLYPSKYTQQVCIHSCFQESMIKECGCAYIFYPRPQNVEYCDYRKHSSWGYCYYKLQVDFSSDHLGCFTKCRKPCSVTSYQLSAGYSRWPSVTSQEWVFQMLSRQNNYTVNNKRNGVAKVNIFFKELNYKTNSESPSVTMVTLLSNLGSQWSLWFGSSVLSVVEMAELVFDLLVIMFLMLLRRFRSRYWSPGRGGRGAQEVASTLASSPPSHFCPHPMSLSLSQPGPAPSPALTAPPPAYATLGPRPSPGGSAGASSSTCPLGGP

Substance: SW.3G1 T-cell receptor (γ3δ1 TCR, TRGV3/TRDV1) of T-cell clone SW.3G1
- killing in long term killing assay, LCL.174 wildtype cells: 100%
- lysis in long term killing assay, LCL.174 SCNN1A knockout cell lines (gRNA-1 or gRNA-2): < 5%
